Source: US20080025968A1 (YEDA RESEARCH AND DEVELOPMENT, published 2008)

Tests used:
p65, endogenous = molecular target: T1, p65, endogenous (human, UniProt Q04206 1-551); experiment: western blot of the p55 TNF receptor complex from Ramos cells (FIG. 6a)
T1 construct: mature; also called RelA
Protocol: (§1) Transfections, immunoblotting and immunoprecipitations were performed as described in Example 2 and Example 3 of the Examples section. For immunoprecipitation of the CD70/CD27 ligand-receptor complexes from resting PBMC and Ramos cells, cell lysates were prepared as described for the kinase tests aforementioned and incubated for 4 hours at 4° C. with 25 μl of 50% M2-FLAG agarose beads per ml of lysate. The TNF-receptor complex was precipitated as described (Zhang et al., 2000). The signalosome from cell lysates was immunoprecipitated using a 1:1 mixture of two different antibodies against IKK1 (M-280 and H-744, Santa Cruz). Immunoprecipitation was allowed to continue for 2 hours at 4° C., using 10 μg of anti-IKKα antibodies adsorbed to 25 μl of 50% protein-A-Sepharose beads per ml of lysate.

NF-κB2/p100, endogenous = molecular target: T2, NF-κB2/p100, endogenous (human, UniProt Q00653 1-900); experiment: as above
T2 construct: mature
T2 sequence (looked up): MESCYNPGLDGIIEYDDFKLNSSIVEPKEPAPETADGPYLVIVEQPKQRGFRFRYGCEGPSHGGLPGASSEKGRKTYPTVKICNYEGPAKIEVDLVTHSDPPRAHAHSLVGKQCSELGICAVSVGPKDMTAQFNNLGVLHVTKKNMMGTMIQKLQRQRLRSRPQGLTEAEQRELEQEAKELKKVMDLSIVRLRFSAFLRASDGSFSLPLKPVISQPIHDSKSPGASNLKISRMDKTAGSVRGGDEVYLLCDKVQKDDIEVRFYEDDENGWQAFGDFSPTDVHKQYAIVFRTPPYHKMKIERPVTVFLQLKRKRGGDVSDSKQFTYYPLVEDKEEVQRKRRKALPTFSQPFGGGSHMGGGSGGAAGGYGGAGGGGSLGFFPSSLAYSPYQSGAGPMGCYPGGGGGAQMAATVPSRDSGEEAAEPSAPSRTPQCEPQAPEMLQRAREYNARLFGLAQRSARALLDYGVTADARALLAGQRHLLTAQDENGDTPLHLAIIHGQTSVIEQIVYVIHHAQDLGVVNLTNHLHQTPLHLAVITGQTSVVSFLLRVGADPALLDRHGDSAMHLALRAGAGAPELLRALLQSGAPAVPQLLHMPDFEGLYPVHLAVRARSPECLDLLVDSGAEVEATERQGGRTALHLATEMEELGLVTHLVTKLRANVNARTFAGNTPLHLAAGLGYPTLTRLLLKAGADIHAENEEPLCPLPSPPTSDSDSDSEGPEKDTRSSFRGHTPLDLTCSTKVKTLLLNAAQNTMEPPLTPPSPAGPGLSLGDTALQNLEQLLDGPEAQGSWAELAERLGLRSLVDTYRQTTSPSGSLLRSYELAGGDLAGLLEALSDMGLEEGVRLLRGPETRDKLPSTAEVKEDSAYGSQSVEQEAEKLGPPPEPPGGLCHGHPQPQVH
Protocol: as §1

IKK1, endogenous = molecular target: T3, IKK1, endogenous (human, UniProt O15111 1-745); experiment: western blot of the p55 TNF receptor complex from Ramos cells after TNF (FIG. 5c)
T3 construct: mature; also called IKKα
T3 sequence (looked up): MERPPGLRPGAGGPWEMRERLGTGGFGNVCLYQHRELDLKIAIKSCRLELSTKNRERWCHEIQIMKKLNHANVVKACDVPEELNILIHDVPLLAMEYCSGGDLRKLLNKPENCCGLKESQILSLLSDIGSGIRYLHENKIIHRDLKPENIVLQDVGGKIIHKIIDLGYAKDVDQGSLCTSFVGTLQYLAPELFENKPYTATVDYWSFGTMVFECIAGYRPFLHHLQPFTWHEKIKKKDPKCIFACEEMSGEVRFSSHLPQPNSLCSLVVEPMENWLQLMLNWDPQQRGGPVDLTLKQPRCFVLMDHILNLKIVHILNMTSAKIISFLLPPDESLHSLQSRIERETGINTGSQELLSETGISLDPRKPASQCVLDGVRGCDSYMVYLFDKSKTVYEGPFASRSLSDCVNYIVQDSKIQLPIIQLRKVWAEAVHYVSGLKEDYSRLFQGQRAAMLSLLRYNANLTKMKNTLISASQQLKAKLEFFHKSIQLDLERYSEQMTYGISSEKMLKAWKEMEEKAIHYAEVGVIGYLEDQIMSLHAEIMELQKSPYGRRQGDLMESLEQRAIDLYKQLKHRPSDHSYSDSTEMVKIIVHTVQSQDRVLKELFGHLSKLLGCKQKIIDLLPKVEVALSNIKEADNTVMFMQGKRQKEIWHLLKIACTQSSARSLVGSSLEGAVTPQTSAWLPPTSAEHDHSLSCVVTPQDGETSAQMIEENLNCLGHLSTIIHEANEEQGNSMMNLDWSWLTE

IKK2, endogenous = molecular target: T4, IKK2, endogenous (human, UniProt O14920 1-756); experiment: as above
T4 construct: mature; also called IKKβ
T4 sequence (looked up): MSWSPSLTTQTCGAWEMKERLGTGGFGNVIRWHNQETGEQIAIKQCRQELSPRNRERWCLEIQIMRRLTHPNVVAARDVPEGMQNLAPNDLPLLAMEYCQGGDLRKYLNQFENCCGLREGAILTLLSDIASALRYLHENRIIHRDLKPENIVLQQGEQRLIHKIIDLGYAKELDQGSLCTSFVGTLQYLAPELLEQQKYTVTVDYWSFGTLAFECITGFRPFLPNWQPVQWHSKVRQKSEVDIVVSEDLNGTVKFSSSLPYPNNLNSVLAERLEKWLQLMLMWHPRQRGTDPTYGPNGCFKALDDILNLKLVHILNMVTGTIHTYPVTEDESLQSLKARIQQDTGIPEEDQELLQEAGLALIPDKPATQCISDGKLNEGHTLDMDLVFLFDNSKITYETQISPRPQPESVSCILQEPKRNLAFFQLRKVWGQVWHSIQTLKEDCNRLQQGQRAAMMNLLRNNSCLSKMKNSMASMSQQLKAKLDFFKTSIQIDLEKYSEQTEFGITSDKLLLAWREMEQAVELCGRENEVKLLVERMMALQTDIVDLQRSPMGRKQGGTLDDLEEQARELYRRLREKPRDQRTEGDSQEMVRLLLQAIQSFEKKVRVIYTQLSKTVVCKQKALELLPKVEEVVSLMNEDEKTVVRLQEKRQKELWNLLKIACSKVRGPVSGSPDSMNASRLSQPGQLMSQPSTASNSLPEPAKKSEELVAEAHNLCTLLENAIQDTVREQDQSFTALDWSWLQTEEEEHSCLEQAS

T1 sequence (Q04206 whole entry): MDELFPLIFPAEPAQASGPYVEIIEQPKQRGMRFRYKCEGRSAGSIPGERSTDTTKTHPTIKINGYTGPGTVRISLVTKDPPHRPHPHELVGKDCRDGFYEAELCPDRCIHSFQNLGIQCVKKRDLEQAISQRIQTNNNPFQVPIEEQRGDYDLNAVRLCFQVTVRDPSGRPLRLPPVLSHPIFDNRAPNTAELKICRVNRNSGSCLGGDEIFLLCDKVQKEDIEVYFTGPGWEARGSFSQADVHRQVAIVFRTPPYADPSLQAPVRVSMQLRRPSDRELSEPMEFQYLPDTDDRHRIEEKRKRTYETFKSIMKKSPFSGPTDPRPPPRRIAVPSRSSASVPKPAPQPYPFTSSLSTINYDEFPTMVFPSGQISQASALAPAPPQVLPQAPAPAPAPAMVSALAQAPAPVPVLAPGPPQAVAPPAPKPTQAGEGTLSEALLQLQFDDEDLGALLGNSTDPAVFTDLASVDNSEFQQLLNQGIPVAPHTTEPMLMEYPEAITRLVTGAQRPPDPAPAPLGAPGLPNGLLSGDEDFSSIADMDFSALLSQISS

binding result (p65, endogenous): binds
binding result (NF-κB2/p100, endogenous): binds
binding result (IKK1, endogenous): binds
binding result (IKK2, endogenous): binds
B1: p55 TNF receptor, endogenous in Ramos cells (receptor, human, UniProt P19438 30-455, looked up)
chain: LVPHLGDREKRDSVCPQGKYIHPQNNSICCTKCHKGTYLYNDCPGPGQDTDCRECESGSFTASENHLRHCLSCSKCRKEMGQVEISSCTVDRDTVCGCRKNQYRHYWSENLFQCFNCSLCLNGTVHLSCQEKQNTVCTCHAGFFLRENECVSCSNCKKSLECTKLCLPQIENVKGTEDSGTTVLLPLVIFFGLCLLSLLFIGLMYRYQRWKSKLYSIVCGKSTPEKEGELEGTTTKPLAPNPSFSPTPGFTPTLGFSPVPSSTFTSSSTYTPGDCPNFAAPRREVAPPYQGADPILATALASDPIPNPLQKWEDSAHKPQSLDTDDPATLYAVVENVPPLRWKEFVRRLGLSDHEIDRLELQNGRCLREAQYSMLATWRRRTPRREATLELLGRVLRDMDLLGCLEDIEEALCGPAALPPAPSLLR
notes: whole, on cells; TNF-receptor complex precipitated as described by Zhang et al., 2000
